In US11666658B2, “Rifamycin analogs and antibody-drug conjugates thereof” (Regeneron Pharmaceuticals, Inc., priority 2018, dated 2023):

Experiments:
[1] = system: MSR1 negative B16F10.9 cells; test: Flow cytometry cell surface binding, MSR1 negative cells; parameters: species or system mouse
Description: Relative cell surface binding of the anti-MSR1 antibodies to mouse MSR1 expressing cells was determined by flow cytometry using MSR1 positive RAW264.7 cells (ATCC, Catalog #TIB-71) and MSR1 negative B16F10.9 cells (Lin et al. 1998. PNAS 95:8829-8834). For the assay, cells were plated in PBS without calcium and magnesium (VWR Cat #45000-446) and 2% FBS (Saradigm Cat #1500-500) (Staining Buffer) in 96 well V-bottom plates (Axygen Scientific, Cat #P-96-450-V-C-S). To block binding to Fc receptors, RAW264.7 cells were incubated for 30 minutes at 4° C. with 500 μg/mL mouse IgG (Jackson ImmunoResearch, Cat #015-000-003) diluted in staining buffer, while B16F10.9 cells remained in staining buffer. Following Fc receptor blocking, 10 μg/mL of anti-MSR1 antibodies or an isotype control antibody were added to the cells and were subsequently incubated for 30 minutes on ice. For a positive control, a commercial anti-mouse MSR1 (Sino Biological, Cat #50129-R004) antibody was used, while a rabbit IgG antibody (Thermo Scientific, Cat #26102) was used as a negative control. […] Cells were subsequently washed and fixed using a 50% solution of Cytofix (BD Biosciences, Cat #554655) diluted in PBS. […] The signal to noise (S/N) was determined by calculating the ratio of the anti-MSR1 antibodies or the control antibodies MFI to the unstained sample MFI (Table 16).

[2] = system: monkey MSR1 extracellular domain (HMM-mfMSR1); test: Surface plasmon resonance (Biacore 4000) binding kinetics, antibody-capture format, 25° C. and 37° C.; conditions: analyte HMM-mfMSR1
Description: (§1) Binding affinities and kinetic constants of human anti-MSR1 antibodies for different MSR1 reagents were determined by real-time surface plasmon resonance (Biacore 4000). All binding studies were performed in 10 mM HEPES, 150 mM NaCl, 3 mM EDTA, and 0.05% v/v Surfactant Tween-20, pH 7.4 (HBS-ET) running buffer at 25° C. and 37° C.
(§2) The association rate (ka) and dissociation rate (kd) were determined by fitting the real-time binding sensorgrams to a 1:1 binding model with mass transport limitation using Scrubber 2.0 c curve-fitting software. Binding dissociation equilibrium constant (KD) and dissociative half-life (t½) were calculated from the kinetic rates as: […]

[3] = biological target: T1, human MSR1 extracellular domain (His9-hMSR1) (Homo sapiens, UniProt P21757); test: as above; conditions: analyte His9-hMSR1
T1 construct: human MSR1 extracellular domain expressed with a N-terminal nonahistidine tag; purchased R&D Systems 2708-MS
T1 sequence (P21757 77-451 limits assumed): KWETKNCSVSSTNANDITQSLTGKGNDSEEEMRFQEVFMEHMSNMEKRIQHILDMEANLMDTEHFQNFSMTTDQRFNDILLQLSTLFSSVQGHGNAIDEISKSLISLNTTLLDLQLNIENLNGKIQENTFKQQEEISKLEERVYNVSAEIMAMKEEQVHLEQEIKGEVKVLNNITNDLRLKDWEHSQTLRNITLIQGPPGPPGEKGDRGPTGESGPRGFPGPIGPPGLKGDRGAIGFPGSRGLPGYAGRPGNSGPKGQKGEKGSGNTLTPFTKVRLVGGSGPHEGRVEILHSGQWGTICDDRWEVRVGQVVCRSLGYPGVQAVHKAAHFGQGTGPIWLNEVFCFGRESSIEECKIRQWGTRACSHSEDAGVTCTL
Description: as §1, §2

parental HEK293 cells = test: Electrochemiluminescence (ECL) antibody binding assay on cells, non-specific binding control; parameters: species or system human
Description: (§3) The ability of anti-MSR1 monoclonal antibodies to bind to human or monkey MSR1 expressing cells was determined using electrochemiluminescence (ECL) based detection.
(§4) Two cell lines overexpressing either human or monkey MSR1 were generated. To generate the human MSR1 overexpressing cell line, human embryonic kidney (HEK) 293 cells were engineered by transduction with hygromycin resistant lentiviral vector encoding full length human MSR1 (hMSR1, amino acids M1-L451 of accession number NP_619729.1) with a C-terminal Myc tag. The resulting cell line is referred to as HEK293.Myc.hMSR1. Similarly, to generate the monkey MSR1 overexpressing cell line, HEK293 cells were engineered by transfection with the geneticin resistant expression plasmid encoding full length monkey MSR1 (Macaca fascicularis, mfMSR1, amino acids M1-L451 of accession number XP_005562705.1). The resulting cell line is referred to as HEK293.mfMSR1 cells. To measure the ability of antibodies to bind to endogenously expressed human MSR1, THP-1 human monocytic cells were treated with 200 nM of phorbol 12-myristate 13-acetate (PMA; Sigma, Cat #P8139) for 72 hours to induce high MSR1 expression prior to antibody binding.
(§5) Luminescence intensity, measured in relative light units (RLU), was recorded to indicate the binding intensity of each antibody at the range of concentrations.

[4] = biological target: T2, endogenously expressed human MSR1 on PMA-treated THP-1 cells (Homo sapiens, UniProt P21757); test: Electrochemiluminescence (ECL) antibody binding assay on cells
T2 construct: endogenously expressed human MSR1; endogenous in cells; host or cells: THP-1 cells treated with 200 nM PMA
T2 sequence (P21757 1-451): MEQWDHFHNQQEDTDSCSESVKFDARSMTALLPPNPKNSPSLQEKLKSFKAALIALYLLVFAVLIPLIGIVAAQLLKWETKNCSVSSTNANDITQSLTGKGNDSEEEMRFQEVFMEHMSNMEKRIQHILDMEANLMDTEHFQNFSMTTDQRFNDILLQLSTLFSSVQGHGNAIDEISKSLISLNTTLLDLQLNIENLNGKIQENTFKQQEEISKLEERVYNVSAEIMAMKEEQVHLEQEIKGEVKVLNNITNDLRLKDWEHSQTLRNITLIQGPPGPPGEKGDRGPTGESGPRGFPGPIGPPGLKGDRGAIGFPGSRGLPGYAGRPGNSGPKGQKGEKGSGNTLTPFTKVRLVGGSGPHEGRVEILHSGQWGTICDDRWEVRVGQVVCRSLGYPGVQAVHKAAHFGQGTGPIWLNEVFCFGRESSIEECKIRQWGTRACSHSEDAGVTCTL
Description: as §3, §4, §5

[5] = 37° C., antibody-capture format
[6] = 37° C., antibody-capture format, * = no dissociation observed, kd manually fixed at 1.00E−05
[7] = Biacore, 25° C., * no dissociation observed, kd fixed at 1.00E−05

Sequence of monkey MSR1 extracellular domain (HMM-mfMSR1) (as listed by the source): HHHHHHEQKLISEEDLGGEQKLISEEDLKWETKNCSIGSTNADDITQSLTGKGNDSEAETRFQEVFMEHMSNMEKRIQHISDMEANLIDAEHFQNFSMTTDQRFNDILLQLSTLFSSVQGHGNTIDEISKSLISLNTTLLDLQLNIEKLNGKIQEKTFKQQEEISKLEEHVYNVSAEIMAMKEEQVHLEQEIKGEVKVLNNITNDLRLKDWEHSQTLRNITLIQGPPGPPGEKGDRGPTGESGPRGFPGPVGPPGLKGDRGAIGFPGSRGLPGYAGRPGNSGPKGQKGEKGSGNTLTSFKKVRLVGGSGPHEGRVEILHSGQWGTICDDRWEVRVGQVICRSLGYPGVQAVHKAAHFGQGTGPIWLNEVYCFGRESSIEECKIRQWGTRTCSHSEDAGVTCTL

B1: H1H21234N-N297Q: "An anti-MSR1 antibody H1H21234N containing a N297Q mutation, which eliminates N-linked glycosylation of the Fc at this site" (antibody, V domains shown)
VH: QVQLQESGPGLVKPSETLSLTCTVTGGSISRNYWSWIRQPPGKGLEWIGYIYYSGSIDYNPSLKSRVTISVDTSKNQFSLKLSSMTAADTAVYYCARDRWNWKYGMDVWGQGTTVIVSS
VL: EIVLTQSPGTLSLSPGERATLSCRASQTVRNNYLAWYHQKPGQAPRLLIYGASSRATGIPDRFSGSGSGTDFTLTISRLEPEDFTVYYCHQYGNSPWTFGQGTKMEIKR
Q: With B1 as the molecule, how does the “B16F10.9 MFI” value ([1]; 10 μg/mL antibody, flow cytometry) read?
A: The value was 3499.

Q: And the “B16F10.9 S/N” value ([1]; ratio of antibody MFI to unstained sample MFI)?
A: Its value is 1.

Q: What about the ka [2, 5] of the same molecule?
A: Its ka is 750000 M⁻¹ s⁻¹.

Q: What about the kd [2, 6] of the same molecule?
A: Its kd is 1.00E−05* s^−1.

Q: And the ka ([2]; Biacore, 25° C.)?
A: Its ka is 408000 M⁻¹ s⁻¹.

Q: What about the kd [2, 7] of the same molecule?
A: The kd was 1.95e-05 s⁻¹.

Q: And the ka [3, 5]?
A: Its ka is 787000 M⁻¹ s⁻¹.

Q: And the kd [3, 6]?
A: The kd was 1.00E−05* s^−1.

Q: What about the ka ([3]; Biacore, 25° C.) of the same molecule?
A: Its ka is 497000 M⁻¹ s⁻¹.

Q: And the kd [3, 7]?
A: Its kd is 1.00E−05* s^−1.

Q: What about the “Ratio of 11 nM Antibody Binding Signal (RLU) to isotype control, HEK293” value (parental HEK293 cells) of the same molecule?
A: The value was 9.

Q: What about the “Ratio of 11 nM Antibody Binding Signal (RLU) to isotype control, PMA-treated THP-1” value [4] of the same molecule?
A: The value was 25.
